This test has as its target T1, ankyrin repeat and SH3 domains of human ASPP2 (residues P891–A1128) (human, UniProt Q13625 891-1128).
T1 construct: ASPP2 (53BP2), human, ankyrin repeat and SH3 domains, residues P891-A1128, UniProt Q13625; cloned into pCOEX-LIC1; The limits are stated for the crystallised construct; also called 53BP2; source: E. coli BL21(DE3) R3 pRARE, purified (nickel-Sepharose, TEV protease, HiTrap Q, Superdex 200); not shown: His6, N-terminal, cleaved
T1 sequence (looked up): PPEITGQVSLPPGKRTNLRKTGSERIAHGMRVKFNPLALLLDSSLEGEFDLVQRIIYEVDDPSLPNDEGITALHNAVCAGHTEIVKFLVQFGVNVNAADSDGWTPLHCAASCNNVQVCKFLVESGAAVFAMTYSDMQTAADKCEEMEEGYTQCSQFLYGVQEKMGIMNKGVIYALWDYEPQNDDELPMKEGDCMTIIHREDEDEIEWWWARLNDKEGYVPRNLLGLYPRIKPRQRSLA
The test can be described thus: native gel or EMSA; 20 uM ASPP2 with decreasing concentrations of p73 112-315; 4 °C overnight; 50 mM sodium phosphate, pH 7.2, 50 mM NaCl, 5 mM DTT, 50 mM L-arginine, 50 mM L-glutamate; 10% polyacrylamide gel in Tris-glycine, pH 8.3, Coomassie stain. The following applies: both partners purified. In general terms: Mobility shift assays separate free from complexed probe on a gel.

B1: p73 DBD (p73 amino acids 112–315) (domain or fragment, human, UniProt O15350 112-315, looked up)
chain: APVIPSNTDYPGPHHFEVTFQQSSTAKSATWTYSPLLKKLYCQIAKTCPIQIKVSTPPPPGTAIRAMPVYKKAEHVTDVVKRCPNHELGRDFNEGQSAPASHLIRVEGNNLSQYVDDPVTGRQSVVVPYEPPQVGTEFTTILYNFMCNSSCVGGMNRRPILIIITLEMRDGQVLGRRSFEGRICACPGRDRKADEDHYREQQAL
notes: It may be a misprint for 112-311; source: E. coli BL21(DE3) R3 pRARE, purified (said of all proteins)
Take B1: the binding result is “binds”.

Source of the values: paper PMC3472557, “Structural Basis for ASPP2 Recognition by the Tumor Suppressor p73” (Journal of Molecular Biology, 2012).
